Assay results reported in patent US20170296680A1 (NATIONAL RESEARCH COUNCIL OF CANADA, published 2017).
Where “and” joins values, the source holds several entries; their conditions need not be identical. Identical values can stand only once. Values belong to the binder of their own block, whether it stands above or below them.

What was measured:
[1] = biological target: T1, recombinant human tau protein, isoform 2N4R (Tau-441) (human, UniProt P10636-8 1-441); test: SPR, sdAb stored at 4 C, 30 days after IMAC purification
T1 construct: Bought
T1 sequence (P10636 other isoform, or with tags, fused parts or gaps limits assumed): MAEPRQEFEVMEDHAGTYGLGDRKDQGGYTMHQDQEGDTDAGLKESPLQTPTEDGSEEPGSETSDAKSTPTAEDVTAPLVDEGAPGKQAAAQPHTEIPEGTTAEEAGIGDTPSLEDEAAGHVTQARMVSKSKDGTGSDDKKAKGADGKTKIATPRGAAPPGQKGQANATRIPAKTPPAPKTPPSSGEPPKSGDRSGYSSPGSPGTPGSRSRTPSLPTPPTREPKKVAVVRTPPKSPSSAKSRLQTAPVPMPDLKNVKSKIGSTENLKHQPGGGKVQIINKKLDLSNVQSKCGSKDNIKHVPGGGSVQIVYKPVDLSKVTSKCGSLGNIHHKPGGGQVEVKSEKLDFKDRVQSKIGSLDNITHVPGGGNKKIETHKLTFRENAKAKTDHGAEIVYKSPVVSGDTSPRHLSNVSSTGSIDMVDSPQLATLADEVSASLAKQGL

[2] = biological target: T1, recombinant human tau protein, isoform …; test: SPR, sdAb stored at 4 C, 34 days after IMAC purification
[3] = biological target: T1, recombinant human tau protein, isoform …; test: SPR, sdAb stored at 4 C, 42 days after IMAC purification
[4] = biological target: T1, recombinant human tau protein, isoform …; test: SPR, sdAb stored at 4 C, 55 days after IMAC purification
[5] = biological target: T1, recombinant human tau protein, isoform …; test: SPR (Biacore 3000), over immobilized Tau-441, duplicate injection
Method: (§1) Surface Plasmon Resonance (SPR): All binding assays for DH-Tau15 and Fc-Tau15 were carried out at 25° C. on a Biacore™ 3000 instrument (GE Healthcare). […] The running buffer for all SPR experiments was HBS-EP+ (10 mM HEPES, 150 mM NaCl, 3 mM EDTA, pH 7.4, 0.05% surfactant P20; GE Healthcare). The antibodies were injected at 20 μL/min for 2 min with a dissociation time of 30 min. Data was analyzed using the Biacore 3000 BIAevaluations software Version 4.1.

[6] = biological target: T1, recombinant human tau protein, isoform …; test: SPR (Biacore T200), sdAb over immobilized antigen, steady state fit
Method: (§2) Surface Plasmon Resonance (SPR): All binding assays for Tau15 and Tau81 were carried out at 25° C. on a Biacore™ T200 instrument (GE Healthcare). […] The running buffer for all SPR experiments was HBS-EP+ (10 mM HEPES, 150 mM NaCl, 3 mM EDTA, pH 7.4, 0.05% surfactant P20; GE Healthcare). The sdAb were injected at 20 μL/min for 3 min with a dissociation time of 7 min for the test run, and at 20 μL/min for 2 min with a dissociation time of 6 min for the steady state analysis. Data was analyzed using the Biacore T200 evaluations software Version 2.0.
(§3) The KD value for the interaction between Tau15 and Tau81 sdAb and immobilized tau were derived by fitting the data to a steady state model and are reported in Table 1. […] Size exclusion chromatograms (FIG. 4) confirmed that Tau15 and Tau81 were monomeric.

[7] = biological target: hyperphosphorylated tau (tau-p; University of Victoria); test: as above
Method: as §2, §3

[8] = biological target: T1, recombinant human tau protein, isoform …; test: SPR (Biacore 3000), over immobilized Tau-441
Method: as §1

- Kd [1]: 605 nM
- Kd [2]: 820 nM
- Kd [3]: 534 nM
- Kd [4]: 590 nM
- koff [5]: 0.0632 s⁻¹ and 0.0667 s⁻¹
- Kd [6]: 699 nM
- Kd [7]: 622 nM
B1: Tau15 (VHH)
VHH: QVKLEESGGGLVQPGGSLRLSCAASGFTFSNFAMTWVRQSPGKGLEWVSAIDNDGGRTSYSDSVKGRFTISRDNAKNTLYLQMNSLKPEDTAMYYCAAMNLATRKWELWGQGTQVTVSS
notes: Llama single-domain antibody with VH (not VHH) hallmark residues in FR2; monomeric by SEC; expressed in E. coli periplasm; also called 3Tau15; sdAb Tau15; not shown: C-terminal cmyc and His6 tags (pSJF2H vector); OmpA leader removed on secretion

- fold slower off rate than monomeric Tau15 [8]: ~1000 fold
- koff [5]: 4.27e-05 s⁻¹ and 3.45e-05 s⁻¹
B2: dimeric human hinge Tau15 (DH-Tau15) (VHH)
VHH: B1 VHH
notes: dimer through the hinge; also called dimeric hinge Tau15; hinge dimer

- Kd [1]: 105 nM
- Kd [2]: 175 nM
- Kd [3]: 660 nM
- Kd [4]: 507 nM
- Kd [6]: 820 nM
- Kd [7]: 745 nM
B3: Tau81 (VHH)
VHH: QVQLVESGGGLVQPGGSLKLSCAASGFTGDHYAMSWVRQAPGKGLEWVSTIYSYSPNTYYVDSVKDRFTISLDNAKNTLYLQMNSLKPEDTAVYYCAADLEVAEYYAYWGQGTQVTVSS
notes: Llama single-domain antibody with VH hallmark residues in FR2; mainly monomeric by SEC; also called 7Tau81; sdAb Tau81; not shown: C-terminal cmyc and His6 tags (pSJF2H vector); OmpA leader removed on secretion
